From the supplement of paper PMC7877785
± gives the uncertainty stated by the source.

Assay: self-splicing fitness, log relative to wild type (ln ratio); higher = more splicing; Tetrahymena group I intron in knt gene, E. coli kanamycin selection, DiMSum; sequences stand for … in CUCUCU…GGAGGGAAAAGUUAUCAGGCAUGCACCUGGUAGCUAGUCUUUAAACCAAUAGAUUGCAUCGGUUUAAAAGGCAAGACCGUCAAAUUGCGGGAAAGGGGUCAACAGCCGUUCAGUACCAAGUCUCAGGGGAAACUUUGAGAUGGCCUUGCAAAGGGUAUGGUAAUAAGCUGACGGACAUGGUCCUAACCACGCAGCCAAGUCCUAAGUCAACAGAUCUUCUGUUGAUAUGGAUGCAGUUCACAGACUAAAUGUCGGUCGGGGAAGAUGUAUUCUUCUCAUAAGAUAUAGUCGGACCUCUCCUUAAUGGGAGCUAGCGGAUGAAGUGAUGCAACACUGGAGCCGCUGGGAACUAAUUUGUAUGCGAAAGUAUAUUGAUUAGUUUUGGAGUACUCGUGGUCG
Method in brief: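 Colonies from six replicate transformations of E. coli BL21(DE3) were pooled and amplicon-sequenced on an Illumina HiSeq 2500. The library placed an intron with all eight P1ex-region nucleotides randomised inside the knt kanamycin-resistance gene on pET-22b(+), and cells grew overnight at 37°C or 30°C on LB agar with or without 25 μg/mL kanamycin (plus 100 μg/mL carbenicillin, 50 μM IPTG, 0.2% rhamnose). Fitness is the DiMSum error-weighted combination of wild-type-normalised replicate fold changes, kanamycin versus none.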

Sequence | self-splicing fitness (ln) (30 °C) | self-splicing fitness (ln) (37 °C)
UCUAAGCAAUAUUACGUACU | -2.18 ± 0.17 | -1.86 ± 0.21
UCUAAGCAAUAUUACGUGGA | -2.82 ± 0.19 | -3.51 ± 0.39
UCUAAGCAAUAUUACGUUGU | -4.19 ± 0.24 | -1.86 ± 0.15
UCUCAGCAAUAUUACGAAAU |  | -2.86 ± 0.32
UCUCAGCAAUAUUACGAACU | -1.75 ± 0.17 | -1.34 ± 0.21
UCUCAGCAAUAUUACGACAU | -2.714 ± 0.018 | -1.49 ± 0.034
UCUCAGCAAUAUUACGACGG | -0.806 ± 0.071 | -0.119 ± 0.094
UCUCAGCAAUAUUACGAGUA | -1.35 ± 0.066 | -0.132 ± 0.077
UCUCAGCAAUAUUACGAUUC | -2.66 ± 0.28 | -1.94 ± 0.27
UCUCAGCAAUAUUACGCCUU | -3.77 ± 0.33 | -2.15 ± 0.21
UCUCAGCAAUAUUACGCGCG | -2.42 ± 0.21 | -1.71 ± 0.24
UCUCAGCAAUAUUACGCGUU | -2.55 ± 0.14 | -1.55 ± 0.17
UCUCAGCAAUAUUACGCUAG | -2.76 ± 0.25 | -1.8 ± 0.25
UCUCAGCAAUAUUACGGAAC | -3.48 ± 0.41 | 
UCUCAGCAAUAUUACGGACC |  | -2.13 ± 0.34
UCUCAGCAAUAUUACGGACG | -1.84 ± 0.14 | -0.508 ± 0.13
UCUCAGCAAUAUUACGGUUA | -0.801 ± 0.083 | -0.239 ± 0.091
UCUCAGCAAUAUUACGUACG | -2.45 ± 0.14 | -1.26 ± 0.13
UCUCAGCAAUAUUACGUUAA | -2.79 ± 0.19 | -2.26 ± 0.17
UCUCAGCAAUAUUACGUUAU | -2.98 ± 0.095 | -2.8 ± 0.13
UCUCAGCAAUAUUACGUUGC |  | -2.73 ± 0.23

Sequence | self-splicing fitness (ln) (30 °C) | self-splicing fitness (ln) (37 °C)
UCUGAGCAAUAUUACGAAAC | -2.45 ± 0.31 | 
UCUGAGCAAUAUUACGACGU | -0.648 ± 0.13 | 0.778 ± 0.13
UCUGAGCAAUAUUACGAGCA |  | -2.23 ± 0.36
UCUGAGCAAUAUUACGAGGG | -4.14 ± 0.27 | -2.5 ± 0.3
UCUGAGCAAUAUUACGAGUC | -2.7 ± 0.41 | 
UCUGAGCAAUAUUACGCACA |  | -1.23 ± 0.49
UCUGAGCAAUAUUACGCAGU | -2.4 ± 0.35 | -1.08 ± 0.21
UCUGAGCAAUAUUACGCCGG | -1.96 ± 0.22 | -0.975 ± 0.24
UCUGAGCAAUAUUACGCGCU | -2.53 ± 0.28 | -1.59 ± 0.3
UCUGAGCAAUAUUACGCGGU | -2.71 ± 0.28 | -2.5 ± 0.28
UCUGAGCAAUAUUACGCUAU | -3.8 ± 0.22 | -3.15 ± 0.28
UCUGAGCAAUAUUACGGAGG | -3.34 ± 0.32 | -1.79 ± 0.27
UCUGAGCAAUAUUACGGCUC | -2.63 ± 0.22 | -2.14 ± 0.24
UCUGAGCAAUAUUACGGUAU | -2.41 ± 0.18 | -2.5 ± 0.44
UCUGAGCAAUAUUACGGUUA | -2.82 ± 0.18 | -2.05 ± 0.14
UCUGAGCAAUAUUACGGUUG | -3.75 ± 0.23 | -3.15 ± 0.3
UCUGAGCAAUAUUACGUAAC | -3.44 ± 0.33 | -1.55 ± 0.2
UCUGAGCAAUAUUACGUAGC |  | -2.04 ± 0.27
UCUGAGCAAUAUUACGUAGG | -0.323 ± 0.087 | -0.306 ± 0.13
UCUGAGCAAUAUUACGUGGC | -3.1 ± 0.25 | -1.94 ± 0.23
UCUGAGCAAUAUUACGUUGC | -3.64 ± 0.28 | 
